Data on seven molecules can be found in US20230083243A1 (VEGA THERAPEUTICS, published 2023).

Assay [1] deals with T1, cynomolgus monkey Protein S (cynomolgus monkey).
T1 construct: also called cyno Protein S
The assay is described as follows: BLI Octet; antibody on anti-human Fc probe; Protein S 7.81-500 nM; 4 mM CaCl2. As for the experimental part: (§1) Binding characteristics of the Protein S antibodies were also further characterized using Octet. Using the Octet System (Sartorius), the binding of each antibody to both human and cynomolgus monkey (“cyno” in Table 10) Protein S was determined. The human Fc antibodies were immobilized onto anti-human Fc capture probes by placing the probes into 10 μg/ml antibody solution in 10 mg/ml bovine serum albumin, 20 mM Tris pH 7.0, 150 mM NaCl, and 4 mM calcium chloride. […] Next, the probes were placed into buffer and the dissociation rates were measured.
(In general: BLI is a label-free optical method that tracks binding on a fibre tip over time.)

Assay [2] concerns the target T2, human Protein S (human, UniProt P07225 42-676).
T2 construct: also called ProS; ProS1
T2 sequence: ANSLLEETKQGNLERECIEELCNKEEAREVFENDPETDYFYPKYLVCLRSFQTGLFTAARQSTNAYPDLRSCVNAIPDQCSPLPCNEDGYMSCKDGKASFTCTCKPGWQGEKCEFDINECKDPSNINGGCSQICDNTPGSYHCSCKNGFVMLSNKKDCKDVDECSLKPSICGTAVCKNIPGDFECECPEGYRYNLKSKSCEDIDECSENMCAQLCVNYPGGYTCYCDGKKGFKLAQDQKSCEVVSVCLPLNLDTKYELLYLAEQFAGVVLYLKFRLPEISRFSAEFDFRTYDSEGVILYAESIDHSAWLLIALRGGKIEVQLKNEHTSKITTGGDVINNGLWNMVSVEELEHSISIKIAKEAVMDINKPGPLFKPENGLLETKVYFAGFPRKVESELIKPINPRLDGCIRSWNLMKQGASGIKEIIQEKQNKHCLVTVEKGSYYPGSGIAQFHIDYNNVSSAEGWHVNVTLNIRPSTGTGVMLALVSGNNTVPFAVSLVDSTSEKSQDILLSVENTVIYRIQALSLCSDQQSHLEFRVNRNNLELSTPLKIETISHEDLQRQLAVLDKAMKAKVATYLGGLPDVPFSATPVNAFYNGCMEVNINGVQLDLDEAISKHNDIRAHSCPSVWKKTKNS
Described as above. As for the experimental part: as §1

A further assay addresses T3, Protein S-C4BP complex (human, UniProt P04003 49-597; P20851 18-252).
T3 construct: C4BP preparation from Complement Technologies that contains Protein S precomplexed to human C4BP; also called ProS-C4BP Complex; C4BP-Protein S complex
T3 sequence 1: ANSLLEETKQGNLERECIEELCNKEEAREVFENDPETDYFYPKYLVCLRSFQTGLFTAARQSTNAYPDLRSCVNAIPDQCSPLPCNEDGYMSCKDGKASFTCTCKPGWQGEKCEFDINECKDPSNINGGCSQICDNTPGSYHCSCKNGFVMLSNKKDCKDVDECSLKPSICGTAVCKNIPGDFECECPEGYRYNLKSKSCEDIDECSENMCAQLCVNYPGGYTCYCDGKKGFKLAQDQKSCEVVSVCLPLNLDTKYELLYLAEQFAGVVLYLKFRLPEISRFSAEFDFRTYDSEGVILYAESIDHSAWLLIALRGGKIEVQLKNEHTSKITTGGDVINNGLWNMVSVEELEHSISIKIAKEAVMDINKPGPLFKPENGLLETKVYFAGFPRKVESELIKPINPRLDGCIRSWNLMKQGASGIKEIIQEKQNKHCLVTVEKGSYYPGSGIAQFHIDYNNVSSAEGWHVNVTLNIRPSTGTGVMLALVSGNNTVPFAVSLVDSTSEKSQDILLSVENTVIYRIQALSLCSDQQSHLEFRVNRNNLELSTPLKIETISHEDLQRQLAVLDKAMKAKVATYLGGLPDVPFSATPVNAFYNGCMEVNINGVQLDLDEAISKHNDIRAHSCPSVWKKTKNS
T3 sequence 2: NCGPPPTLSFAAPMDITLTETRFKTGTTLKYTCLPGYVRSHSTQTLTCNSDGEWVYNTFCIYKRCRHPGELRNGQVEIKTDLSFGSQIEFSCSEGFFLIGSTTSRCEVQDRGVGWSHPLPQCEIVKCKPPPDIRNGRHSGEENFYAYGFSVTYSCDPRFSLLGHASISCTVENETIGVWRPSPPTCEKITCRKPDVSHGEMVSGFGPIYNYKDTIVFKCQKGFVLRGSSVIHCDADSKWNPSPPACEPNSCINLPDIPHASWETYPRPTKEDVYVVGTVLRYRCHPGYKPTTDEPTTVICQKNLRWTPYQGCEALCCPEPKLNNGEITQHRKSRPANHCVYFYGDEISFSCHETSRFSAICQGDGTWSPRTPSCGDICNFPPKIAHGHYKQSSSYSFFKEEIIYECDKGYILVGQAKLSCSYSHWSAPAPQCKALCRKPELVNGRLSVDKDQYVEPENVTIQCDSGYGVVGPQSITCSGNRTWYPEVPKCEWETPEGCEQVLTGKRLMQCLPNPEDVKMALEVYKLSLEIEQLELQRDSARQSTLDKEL
T3 sequence 3: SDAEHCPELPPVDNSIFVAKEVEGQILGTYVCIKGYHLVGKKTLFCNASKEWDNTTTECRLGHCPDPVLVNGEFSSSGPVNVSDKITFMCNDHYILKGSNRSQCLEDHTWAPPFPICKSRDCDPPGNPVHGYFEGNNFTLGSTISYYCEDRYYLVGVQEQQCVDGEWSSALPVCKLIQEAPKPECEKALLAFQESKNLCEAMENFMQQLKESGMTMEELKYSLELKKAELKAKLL
The assay is described as follows: BLI Octet; antibody on anti-human Fc probe. The protocol:
The Octet assay was used to determine the capability of the Protein S antibodies provided herein to bind to Protein S either alone, or when complexed to C4BP.
Using the Octet System (Sartorius), the binding of each antibody to both Protein S and Protein S in complex with C4BP was determined. It had previously been determined that the C4BP preparation from Complement Technologies contains Protein S precomplexed to human C4BP. Therefore, this preparation represented the Protein S-C4BP complex and plasma purified Protein S from Haematologic Technologies was used as the source of free Protein S. The human Fc antibodies were immobilized onto anti-human Fc capture probes by placing the probes into 10 μg/ml antibody solution in 10 mg/ml bovine serum albumin, 20 mM Tris pH 7.0, 150 mM NaCl, and 4 mM calcium chloride. Then the bound antibodies were placed into solutions containing either 75 μg/ml Protein S or 100 μg/ml C4BP (C4BP-Protein S complex).

Assay [3] concerns the target T2, human Protein S. The assay is described as follows: SPR Biacore X100; antibody captured by anti-human IgG (Fc); Protein S 2-128 nM; 5 mM CaCl2; 1:1 fit. The protocol:
Binding characteristics of the Protein S antibodies were also determined. Binding interaction analysis was obtained by Surface Plasmon Resonance in a Biacore X100 instrument. The human anti-IgG (Fc) antibody was immobilized to the carboxymethylated dextran membrane on the sensor chip surface (CM5) via the free amine method for a contact time of 420 seconds. Human anti-IgG antibody at 25 μg/mL in 0.15 M NaCl was immobilized to 9,785 RU in 10 mM sodium acetate pH 5.0.
Dilution and running buffer were as follows: Hbs−EP+5 mM CaCl₂. Regeneration was obtained by 3 M MgCl₂. Binding constants (ka, kd, and KD) were determined using the Biacore X100 evaluation software, assuming a 1:1 interaction of Protein S and the tested monoclonal antibody under investigation.
Background: SPR reads the build-up and loss of mass on a sensor chip optically.

B1: Antibody 41 (antibody, V domains shown)
VH: QVQLVQSGSEVKKPGASVKVSCKASGYTFTNYYIHWVRQAPGQGLEWMGIITPSGGTTSYAQKFQGRVTMTRDTSTNTVYMGLSSLRSEDTAMYYCARAGVQLDRRGWFDPWGQGTLVTVSS
VL: SYELTQPPSVSVSPGQTASITCSGDKLGDKYVFWYQQKPGQSPVLVIYQDSKRPSGIPERFSGSNSGNTATLTISGTQTMDEADYYCQAWDSSTVGFGGGTKLAVL
notes: Same variable regions as Antibody 42
For B1, in assay [1], binding was characterised by a dissociation constant (Kd) of 19.5 nM, the koff is 0.00188 s⁻¹ and the kon came to 96400 M⁻¹ s⁻¹. In the assay with human Protein S [2], this molecule had an equilibrium dissociation constant (Kd) of 13.8 nM, a koff of 0.0011 s⁻¹ and a kon of 80000 M⁻¹ s⁻¹. Further, in the assay with Protein S-C4BP complex, the binding result is “no binding (tested: 100 µg/ml C4BP (C4BP-Protein S complex))”.

B2: Antibody 25 (antibody, V domains shown)
VH: QVQLQESGPGLVKPSETLSLTCTVSGGSISGNYWSWIRQPPGKGLEWIGYIYYSGSTNYNPSLKSRVTISVDTSKNQFSLKLSSVTAADTAVYYCARDLDYFTWGAYSDWYFDLWGRGTLVTVSS
VL: DIQMTQSPSSLSASVGDRVTITCRASQSISTFLNWYQQKPGKAPKLLIYATSSLRSGVPSRFSGSGSGTDFTLTISSLQPEDFAIYYCQQSYSTPRTFGQGTQVEIK
notes: Same variable regions as Antibody 31
Turning to B2, in assay [1], the Kd is less than 0.001 nM, the koff is less than 1e-07 s⁻¹ and the kon came to 124000 M⁻¹ s⁻¹. Also, in the assay with human Protein S [2], the Kd was less than 0.001 nM, the koff was less than 1e-07 s⁻¹ and the kon was 143000 M⁻¹ s⁻¹. Moreover, in the assay with Protein S-C4BP complex, the binding result is listed as “no binding (tested: 100 µg/ml C4BP (C4BP-Protein S complex))”.

B3: Antibody 37 (antibody, V domains shown)
VH: EVQLVESGGGLVKPGGSLRLSCAASGISFSNAWMSWVRQAPGKGLEWVGRIKANPDGGTTDYAAPVKGRFTISRDDSKNTLYLQMNSLKTEDTAVYYCTTELDILLWFTSFDYWGQGTLVTVSS
VL: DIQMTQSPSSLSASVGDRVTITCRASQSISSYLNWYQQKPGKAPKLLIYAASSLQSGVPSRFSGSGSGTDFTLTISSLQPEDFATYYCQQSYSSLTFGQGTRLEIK
notes: Same variable regions as Antibody 38
In assay [1], B3 registered a Kd of 0.672 nM, a koff of 0.000119 s⁻¹ and a kon of 177000 M⁻¹ s⁻¹. In addition, in the assay with human Protein S [2], binding was characterised by a dissociation constant (Kd) of 0.382 nM, the koff turned out to be 8.32e-05 s⁻¹ and the kon is 218000 M⁻¹ s⁻¹. For the same molecule, in the assay with Protein S-C4BP complex, the binding result was “no binding (tested: 100 µg/ml C4BP (C4BP-Protein S complex))”.

B4: Antibody 11 (antibody, V domains shown)
VH: QVQLVQSGAEVKKPGASVKVSCKSSGHTFTGYYMHWVRQAPGQGLEWMGWINPNSGDTNYAQKFQGRVTMTRDTSISTAYMEMSRLRSDDTAVYYCARDSQILWFGELGYWGQGTLVTVSS
VL: QAVVTQESALTTSPGETVTLTCRSSTGAVTASNYANWVQEKPDHLFTGLIGSTNNRAPGVPARFSGSLIGDKAALTITGAQTEDEAIYFCALWYSDHFVFGGGTKLTVL
notes: Same variable regions as Antibody 23
B4: the values for the Kd (in the assay with human Protein S [3]; in assay [1]; in the assay with human Protein S [2]) were 9.6 nM, less than 0.001 nM and 0.399 nM, respectively. For the same molecule, the koff with human Protein S [3] was 0.00113 s⁻¹; in assay [1], less than 1e-07 s⁻¹; in the assay with human Protein S [2], 3.4e-05 s⁻¹. Moreover, the kon in the assay with human Protein S [3] came out at 116000 M⁻¹ s⁻¹; in assay [1], 82100 M⁻¹ s⁻¹; with human Protein S [2], 85200 M⁻¹ s⁻¹. Further, in the assay with Protein S-C4BP complex, the binding result is listed as “no binding (tested: 100 µg/ml C4BP (C4BP-Protein S complex))”.

B5: Antibody 39 (antibody, V domains shown)
VH: EVQLVESGGGLVQPGGSLRLSCAASGFTFSSYSMNWVRQAPGKGLEWVAYISSSTRTIFYADSVKGRFTISRDNAKNSLYLQMNSLRDEDTAFYYCARERSAFDYWGQGTLVTVSS
VL: SYVLTQPPSVSVAPGQTARITCGGDNIGGKSVHWYQQKPGQAPVMVVYDDSDRPSGIPERFAGSNSGNTATLAISRVEAGDEADYYCQVWEITSDHPAFGGGTRLTVL
notes: Same variable regions as Antibody 40
In assay [1], B5 displayed a Kd of 0.419 nM, a koff of 8.02e-05 s⁻¹ and a kon of 191000 M⁻¹ s⁻¹. In the assay with human Protein S [2], binding was put at a Kd of 0.25 nM, the koff turned out to be 5.84e-05 s⁻¹ and the kon turned out to be 234000 M⁻¹ s⁻¹. The binding result with Protein S-C4BP complex was “no binding (tested: 100 µg/ml C4BP (C4BP-Protein S complex))”.

B6: Antibody 29 (antibody, V domains shown)
VH: QLQLQESGPGLVKPSETLSLTCTVSGGSITNSNYYWGWIRQPPGKGLEWIGSVYYSGTTYYNPSLKSRVTISVDPSKNQFSLKLSSVTAADTAVYYCVRESESYYYYGSDVWGQGTTVTVSS
VL: DIQMTQSPSSLSASVGDRVTITCRASQGINNYLAWFQQKPGKAPKSLIYAASSLQSGVPSKFSGSGSGTDFTLTISSLQPEDFATYYCQQYNSYPRTFGQGTKVEIK
notes: Same variable regions as Antibody 35
In assay [1], B6 showed a Kd of 20 nM, a koff of 0.00177 s⁻¹ and a kon of 88200 M⁻¹ s⁻¹. In the assay with human Protein S [2], this molecule had a Kd of 21.1 nM, a koff of 0.00173 s⁻¹ and an on-rate (kon) of 81900 M⁻¹ s⁻¹. In addition, the binding result with Protein S-C4BP complex is recorded as “no binding (tested: 100 µg/ml C4BP (C4BP-Protein S complex))”.

B7: Antibody 30 (antibody, V domains shown)
VH: EVQLVESGGGLVKPGGSLRLSCAASGFTFSSYNMNWVRQAPGRGLDWVSSISSSSSYIYYADSVKGRFTISRDNAKNSLYLQMNTLRAEDTAVYYCARDEEWELLTGFDYWGQGTLVTVSS
VL: DIQMTQSPSSLSASVGDRVTITCRASQGINNYLAWFQQKPGKAPKSLIYAASNLQSGVPLKFSGSGSGTDFTLTISSLQPEDFATYYCQQYNSYPITFGQGTRLEIK
notes: Same variable regions as Antibody 36
In assay [1], B7 came in with a Kd of 20.9 nM, a koff of 0.00073 s⁻¹ and a kon of 35000 M⁻¹ s⁻¹. Further, in the assay with human Protein S [2], binding was characterised by a dissociation constant (Kd) of 11.5 nM, the koff is 0.000279 s⁻¹ and the kon was 24200 M⁻¹ s⁻¹. Moreover, the binding result with Protein S-C4BP complex is recorded as “no binding (tested: 100 µg/ml C4BP (C4BP-Protein S complex))”.

The term Kd denotes the equilibrium constant for the complex coming apart. The term koff denotes the rate constant with which the complex falls apart. By kon is commonly meant the rate constant with which the complex forms.
